From the DeepSol protein solubility set

Assay: soluble on expression in E. coli; label from the status in PepcDB or PDB records
In the case of “MMEEYVVIGKVLDTFGLEGELKVRPYAPPEVFENLEKVYLKRKGGDWVPFEVEWVDFIDDKVIIKFKGYDSIDEVEQFKGAKLFLPKEELPELGEEEYYAYELVGMEVETDKGKKLGKVERVQDMGPYDALVLDKENLLVPFVSDIVLKVDKENKKIIVKEELLPVLEHHHHHH”, the “soluble on expression in E. coli” value is reported as “soluble”.
With “FDKLGNSAAIQEMNREVEAAAKRTSPVFLTGEAGSPFETVARYFHKNGTPWVSPARVEYLIDMPMELLQKAEGGVLYVGDIAQYSRNIQTGITFIIGKAERCRVRVIASCSYAAGSDGISCEEKLAGLFSESVVRIPPLS” the “soluble on expression in E. coli” value was “soluble”.
In the case of “MLGVLKKVFDPNKRQLARLEKIADQVDALGPEMARLSDEQLRQKTEEFKARYQQGESLDDLLVEAFAVVREGAKRVLGLYPYKVQIMGGVVLHEGDIAEMKTGEGKTLTATMPVYLNALTGRGVHVVTVNEYLATRDATEMGKLYEFLGMTVGLNLSGMSREEKQAAYNADITYGTNNEFGFDYLRDNMVLYKEHIVQRPLYYAIIDEVDSILIDEARTPLIISGTAQKSTKLYVQANAFVRTLRKDVDYTYDEKTKSVQLTEEGINKAERAFGIDNLFDLKHVTLNHHIQLALRAHVTMQRDVDYVVQDGKVIIVDPFTGRLMHGRRYSDGLHQAIEAKEGLEIQNESMTLATITFQNYFRMYEKLAGMTGTAKTEEEEFRNIYNMRVVVIPTNRPVIREDRPDLIYRTMEGKFRAVVEDIAARHAKGQPVLVGTVAIETSEMLSEMLKKRGIPHNVLNAKNHAKEAEIIAQAGQKGAVTIATNMAGRGTDIKLGEGVKELGGLAVIGTERHESRRIDNQLRGRSGRQGDPGVSQFYLSLEDELMRRFGSESLMAMMDRLGMDDSQPIQSKMVTKAVESAQKRVEGNNFDARKQLLQYDDVLREQREIIYRQRYEVLDSDNLRGIIEKMIQSVIERVVNAHTPKEEVPEEWNLKGLVEYLNAHLLPEGDVTEADLRGKEPEEMIELIWAKVKARYDEKEAQIPPEQMREFERVVVLRAVDMKWMNHIDAMEQLRQGIHLRAYGQVDPLREYQMEGYAMFEEMIAAIEEEVATYIMKAEIHHNLERQEVAKGEAVHPKEDGEEPKRKPVRKAVRVGRNDPCPCGSGKKYKHCCGRTV”, the “soluble on expression in E. coli” value is reported as “not soluble”.
With “MTTGVRRRMGVEERRQQLIGVALDLFSRRSPDEVSIDEIASAAGISRPLVYHYFPGKLSLYEAALQRASDDLADRFVEPRQGPLGARLLRVMGRYFDFVDEHGPGFSALMRGGPAVGSTTTNALVDSVRQAAYVQILSHLDVTEPPARLELVVRSWISLAESTALLWLDGRRIPRAELETQLVHDFAALMAVSAAYDEEMGALVRRVLADEPEDGPFGDLVDRLLALSAR” the “soluble on expression in E. coli” value was “soluble”.
With “AHHHHHHGSEYTIVDGEEYIEEIKKLDREISYSFVRFPISYEEYEERHEELFESLLSQGEHKFFVALNERSELLGHVWICITLDTVDYVKIAYIYDIEVVKWARGLGIGSALLRKAEEWAKERGAKKIVLRVEIDNPAVKWYEERGYKARALIMEKPI” the “soluble on expression in E. coli” value was “soluble”.
In the case of “ANIIANTSLTIGPSKLDVAKITPELLASLNEVGGSEANVATGYHAIEFLLWGQDLNGTNAGAGKRAYTDFVVGSGCTNGHCDRRGEYLKAAADLLVQDLEWMEKQWSADEKGNYRQELLTGSAENGLRKMLFGMGSLSLGELAGERMKVALEANSTEDEHDCFSDNTHNSHYYNEQGIYNVYTGTYSRQDGTVLTGPSIANLVAQEDKKAAEEIQKQFDATRSQVGELVTSAEKHNQHFDQLIAAGNAQGNALVNDTIMALVAQTGAIERAAGIVGIDSLSPDTADHEF”, the “soluble on expression in E. coli” value is reported as “not soluble”.
With “MTRTNYQKKRMTCPVETEDITYRRKKIKGRRQAILAQFEPELVHHELIGDSCTCPDCHGTLTEIGSVVQRQELVFIPAQLKRINHVQHAYKCQTCSDNSLSDKIIKAPVPKAPLAHSLGSASIIAHTVHQKFTLKVPNYRQEEDWNKLGLSISRKEIANWHIKSSQYYFEPLYDLLRDILLSQEVIHADETSYRVLESDTQLTYYWTFLSGKHEKKGITLYHHDKRRSGLVTQEVLGDYSGYVHCDMHGAYRQLEHAKLVGCWAHVRRKFFEATPKQADKTSLGRKGLVYCDKLFALEAEWCELPPQERLVKRKEILTPLMTTFFDWCREQVVLSGSKLGLAIAYSLKHERTFRTVLEDGHIVLSNNMAERAIKSLVMGRKNWLFSQSFEGAKAAAIIMSLLETAKRHGLNSEKYISYLLDRLPNEETLAKREVLEAYLPWAKKVQTNCQ” the “soluble on expression in E. coli” value was “not soluble”.
With “MGSDKIHHHHHHMKIRVDIIGLKGGVGKTTIALNTALYLSKRYKVLYIDKDLLSMGSLILGFNGLGFNKAIVEGLGNEQYEYKVNNNLTLFKLYSDPVNERELQHKVKGMGEKAERAYVDVVSKGYDVIIVDYGRIFRTNDPLVYDEYEMFKKNFPDYTIAAAGITDAIRNDVTDVVKYFLDTINRIKAKPLAFVINMVPQIGDIQKEINQIVREISEVVKCDILTIPFNEKLVQYANMGEVEEMQKVGKLIERILSNG” the “soluble on expression in E. coli” value was “not soluble”.
With “MTTIKLIVNSVSKSERESIIAALHGQSIFNGGGLSPLNKISPSHPPKPATVAVPEETEKKARDVNEKTALLKKKSATELGELATSINTIARDAHMEANLEMEIVPQGLRVLIKDDQNRNMFERGSAQIMPFFKTLLVELAPVFDSLDNKIIITGHTDAMAYKNNIYNNWNLSGDRALSARRVLEEAGMPEDKVMQVSAMADQMLLDAKNPQSAGNRRIEIMVLTKSASDTLYQYFGQHGDKVVQPLVQKLDKQQVLSQRTR” the “soluble on expression in E. coli” value was “not soluble”.
With “MAHHHHHHMGTLEAQTQGPGSMLTYFHPDQSLHHPRTYFSRGRMRMPQEVPERAARLVAAAFAMGFPVREPDDFGIAPIAAVHDTHYLRFLETVHREWKAMPEDWGDEAMSNIFVREPNALRGVLAQAARHLADGSCPVGEHTWRAAYWSAQSALAAAAAVRDGAPAAYALCRPPGHHARVDAAGGFCYLNNAAIAAQALRARHARVAVLDTDMHHGQGIQEIFYARRDVLYVSIHGDPTNFYPAVAGFDDERGAGEGLGYNVNLPMPHGSSEAAFFERVDDALRELRRFAPDALVLSLGFDVYRDDPQSQVAVTTDGFGRLGHLIGALRLPTVIVQEGGYHIESLEANARSFFGGFGALRG” the “soluble on expression in E. coli” value was “soluble”.
With “VLDVDTARRRIVDLTDAVRAFCTAHDDGLCNVFVPHATAGVAIIETGAGSDEDLVDTLVRLLPRDDRYRHAHGSYGHGADHLLPAFVAPSVTVPVSGGQPLLGTWQSIVLVDLNQDNPRRSVRLSFVEG” the “soluble on expression in E. coli” value was “not soluble”.
In the case of “ASNIYRLQQAAEAAVKTGRKIAVFGRSMEKAIVNGIELGYIKVPKGTFIEPSELKNLHASEVLIMCTGSQGESMAALARIANGTHRQVTLQPGDTVIFSSSPIPGNTTSVNKLINTIQEAGVDVIHGKVNNIHTSGHGGQQEQKLMLSLIKPKYFMPVHGEYRMQKVHAGLAMDIGIPKENIFIMENGDVLALTSDSARIAGHFNAQDIYVDGNGIGDIGAAVLRDRRDLSEDGVVLAVATVDFNTQMILAGPDILSRGFIYMRESGDLIRESQRVLFNAIRIALKNKDASIQSVNGAIVNALRPFLYEKTEREPIIIPMVL”, the “soluble on expression in E. coli” value is reported as “not soluble”.
For “MVVGGFGVGKTTLVRSVSEIRPLSTEETMTRAGETVDDISEVRGKSATTVAFDFGRISLDTRNILYLFGAPGQERFWFLWDRLFAGTLGAVVLVDTRRIDDSWYAIDRLERHGTPFIVACNDFGGPAHTPEQIREALDLDPHVPLIDCDARSRESSKRVLITLVEHLKSLYVPRAPELALLEHHHHHH”, the “soluble on expression in E. coli” value was “not soluble”.
For “MGSDKIHHHHHHMKRLITQALDGEAGCILSDCEQYRYRLWREWDRSAPGLGFIMLNPSSADHQVNDPTITRCLQRALAGKYGRLEVVNLFPLRSTDPDGLLTHPAPLGDRPDRNECAIMDALDRCSLVICAWGAHKAAPARAAEVLRIVRMCGRGNLLYHLGLNKDGSPKHPLYIAKTKRPEPFTSIPVTQVNREYAPHR”, the “soluble on expression in E. coli” value was “not soluble”.
For “MAPPKDPPVLRNLQATADLLDALQNDPSLLNDEEFIKRLSILRQKHEETTNFLAKKLGAPPLPTMMTSSEITQHRSSYKVTKSSSCHFQDEASPSDYQMPRHLDLKPRSSEVRVPVRAAPEPPREQSWSQTEYATLAHNQSHEALYEDPRHQVHATSSHQNPRHQSSRHHNIESTAPSQVSVTSSVQSVAALSGQNPRQQVHATPSHQIPRHQSSRTHQNSRQQVPSATSSTLQNPRHRTSSASRHHSTRNATSATVRQILANASTRHLSSAPHIATSVAMPSGLLLSSSNTKHVASSKSENPQFATSSHVVEESFLEDGMSTTREVPTIRDEVVAGDLKLSKNRSKSMHQLSKYTPQVTVPKPFQLSLRKSTGNTYAKKFMSGLITEKQKLEEDAKKALENTKFRAKPVPKSTYQPTNTFATEQKYVEAMRKKVAAKARRKFEVQNEMVRSKSEGNLASIKPLGYVPPSTYISPIPVKPNARSRSATMRATILIQEATTPKGIKSHRAQSNLTHHLRHGRCTMDASAVSLHRRTSPPDFEKIHAKITDNFRNTNSKPSTVPIPFKFASRSKSATSRHGNCQEQAPKPFKKSTENLPKTSKNRVPSTHATQLREELNRAKIELKKSEKSGKNGNFWAEDNKQRISSFLGARSKTEEDIAMRTKQKLQQQQETTQEYMRQLAEMKQRVLNGPLIMEKQTALAQEHRLKRKFEERMKSAKGRGIERVQSQEKQQSIGRRSSEVSGSGTFVVDKGYEESFESEDKSEKSGSSTPSESGSGSESENESRSSRSSKPKSSKSTSSKSSSSRSTSSSSEA”, the “soluble on expression in E. coli” value was “not soluble”.
With “MGKYQPSFQTKKGWTEVICGPMFSGKTEKLLHKIKRWKIAKISVVIFKPIIDTRQTNIVKSRNGEYDQAITINSPFEIYDHLVDKNYQIVAIDEAQFFSNEIIEVVTTLNEIGTNVIISGLDTDFRAEPFGCIPQLLAIADVVNKLDAICNVCGSLAQRTQRLVNKNTNDNLVLIGDAEAYEARCKLHHSFLTKKHVTVKTKNFKEQVQGKTQLEHHHHHH” the “soluble on expression in E. coli” value was “not soluble”.
With “MSNAMPWVRFYLYDWISGTNGMTSEQRGVYITLLVCMYEKKEPLKTDFETLARVCHCSQKKFAAIVEYLMRNDKLIEIDGRLWNLDVEEELNNLSEELDNFTFNNNEEKEVKYVN” the “soluble on expression in E. coli” value was “not soluble”.
With “VAVGARCVCGRPLAVVTRPLLPGGVPFPTTCYLTGPEAVKAISHIEAEGKMKEYNDMLAENEDLRAGYERAHELYLAFRHEIALALEDSEEHIEGTSAGGMPVRVKCLHALLAQTLVMGEGANPIGDMALSAIKHEFDPAVCRCAVENEE” the “soluble on expression in E. coli” value was “not soluble”.
For “MSLTNITQCKNRRCGGELGDFTGYIESPNYPGNYPANTECTWTINPPPKRRILIVVPEIFLPIEDDCGDYLVMRKTSSSNSVTTYETCQTYERPIAFTSRSKKLWIQFKSNEGNSARGFQVPYVTYDEDYQELIEDIVRDGRLYASENHQEILKDKKLIKALFDVLAHPQNYFKYTAQESREMFPRSFIRLLRSKVSRFLRPYKEGHHHHHH”, the “soluble on expression in E. coli” value was “not soluble”.
In the case of “MSLKPKYKQIIDDIISQIDSGDLEQGMQLPSQRDMASLYQVNRSTVIQALDILKSQGIIEGREKQRLYVSGNTWHTYIKNNINWQNYISHSTTKNNQYFVQQINKLEFHTNMIRLGTGELAPDLIPNEQFKEILSKCHTPVLNTNYEPPQGNLKLREAVAQYMQKSGVSCTVDHICITSGALQGLKLIADGLLIPQSKIIVESPSYINSIRTWHNMRADIQQISISDIKSNINNIFKAQSQYTNSIFYCIPTLHNPTQHSYSTEEKQKIIMQCEQHGIPIVEDNVYGDLYFNHERPKPLKSFDTNDNILYLNSLSKTVSPGLRVGWIVAKPSVAAHLADLKMQNDYGASSISQYIATQWLTHPQYHDQHLKMLKNQLLIKRNLFLESLKKYFSDFGSWSTPEGSFYIWFQFKFSIDMKRLFDEAIAENILINPGEVYDKDARDCIRFSYAYVDAEDIDETLKHLSKIIQTRFTPPSSHIGKGNEGHHHHHH”, the “soluble on expression in E. coli” value is reported as “not soluble”.
